In US20250076311A1 (Chugai, published 2025):

T1: cynomolgus monkey FcγRIIa1 extracellular domain with C-terminal His-tag (cynomolgus monkey)
T1 construct: also called cyno FcγRIIa1; FcgRIIa1
T1 chain: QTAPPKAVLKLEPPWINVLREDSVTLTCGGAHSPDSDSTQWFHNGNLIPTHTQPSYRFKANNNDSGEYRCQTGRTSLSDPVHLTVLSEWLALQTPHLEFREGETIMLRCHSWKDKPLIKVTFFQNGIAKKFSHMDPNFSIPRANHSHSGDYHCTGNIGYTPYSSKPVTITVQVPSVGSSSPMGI

T2: cynomolgus monkey FcγRIIa2 extracellular domain with C-terminal His-tag (cynomolgus monkey)
T2 construct: also called cyno FcγRIIa2; FcgRIIa2
T2 chain: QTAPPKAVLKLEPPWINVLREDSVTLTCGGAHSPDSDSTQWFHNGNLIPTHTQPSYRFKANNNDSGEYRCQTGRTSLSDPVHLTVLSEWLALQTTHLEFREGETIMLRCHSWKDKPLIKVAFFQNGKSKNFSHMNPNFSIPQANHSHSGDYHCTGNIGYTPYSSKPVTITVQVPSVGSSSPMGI

T3: cynomolgus monkey FcγRIIa3 extracellular domain with C-terminal His-tag (cynomolgus monkey)
T3 construct: also called cyno FcγRIIa3; FcgRIIa3
T3 chain: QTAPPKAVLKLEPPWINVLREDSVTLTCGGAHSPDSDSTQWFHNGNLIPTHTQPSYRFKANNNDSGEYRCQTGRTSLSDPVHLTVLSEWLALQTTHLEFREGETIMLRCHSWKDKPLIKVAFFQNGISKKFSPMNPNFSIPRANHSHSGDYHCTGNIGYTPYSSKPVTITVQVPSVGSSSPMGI

T4: cynomolgus monkey FcγRIIb extracellular domain with C-terminal His-tag (cynomolgus monkey)
T4 construct: also called cyno FcγRIIb; cynoFcγRIIb
T4 chain: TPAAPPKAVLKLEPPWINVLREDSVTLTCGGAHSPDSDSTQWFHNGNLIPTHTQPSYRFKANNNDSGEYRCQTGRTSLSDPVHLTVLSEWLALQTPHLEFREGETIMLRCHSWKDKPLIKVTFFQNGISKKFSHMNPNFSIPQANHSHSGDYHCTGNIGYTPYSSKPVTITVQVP

T5: cynomolgus monkey FcγRIIIaS extracellular domain with C-terminal His-tag (cynomolgus monkey, UniProt Q8SPW2 21-206 at identity 1.00))
T5 construct: also called cyno FcγRIIIaS; FcgRIIIaS
T5 chain: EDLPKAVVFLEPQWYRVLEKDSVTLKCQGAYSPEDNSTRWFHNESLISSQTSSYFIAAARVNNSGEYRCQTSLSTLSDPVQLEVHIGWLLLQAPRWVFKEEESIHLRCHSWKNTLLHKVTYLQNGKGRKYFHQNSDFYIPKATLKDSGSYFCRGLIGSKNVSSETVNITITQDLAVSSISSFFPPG

T6: human FcγRIIaH extracellular domain with C-terminal His-tag (human, UniProt P12318 34-217)
T6 construct: also called human FcγRIIa (type H); FcgRIIaH
T6 sequence: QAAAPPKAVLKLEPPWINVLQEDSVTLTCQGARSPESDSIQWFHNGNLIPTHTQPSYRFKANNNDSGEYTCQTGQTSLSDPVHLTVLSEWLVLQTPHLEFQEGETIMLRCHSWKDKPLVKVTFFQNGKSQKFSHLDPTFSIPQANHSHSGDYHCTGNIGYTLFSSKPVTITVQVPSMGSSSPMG

T7: human FcγRIIaR extracellular domain with C-terminal His-tag (human, UniProt P12318 34-217)
T7 construct: also called human FcγRIIa (type R); FcgRIIaR
T7 chain: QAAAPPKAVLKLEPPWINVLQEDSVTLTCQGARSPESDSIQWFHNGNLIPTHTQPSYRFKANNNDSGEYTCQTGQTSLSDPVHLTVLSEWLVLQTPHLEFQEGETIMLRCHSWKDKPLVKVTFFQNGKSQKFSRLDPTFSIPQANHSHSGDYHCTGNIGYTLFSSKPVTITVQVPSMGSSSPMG

T8: human FcγRIIb extracellular domain with C-terminal His-tag (human, UniProt P31994 43-217)
T8 construct: also called human FcgRIIb; FcgRIIb
T8 sequence: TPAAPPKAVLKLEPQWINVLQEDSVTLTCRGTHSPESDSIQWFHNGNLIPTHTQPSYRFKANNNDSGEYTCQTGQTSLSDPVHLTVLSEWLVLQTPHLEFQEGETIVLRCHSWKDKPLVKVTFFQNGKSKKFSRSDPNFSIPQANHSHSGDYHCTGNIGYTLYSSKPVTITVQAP

T9: cynomolgus monkey FcγRIIa1 extracellular domain with C-terminal His-tag (cynomolgus monkey)
T9 construct: also called cyno FcgRIIa1; cynoFcγRIIa1
T9 chain: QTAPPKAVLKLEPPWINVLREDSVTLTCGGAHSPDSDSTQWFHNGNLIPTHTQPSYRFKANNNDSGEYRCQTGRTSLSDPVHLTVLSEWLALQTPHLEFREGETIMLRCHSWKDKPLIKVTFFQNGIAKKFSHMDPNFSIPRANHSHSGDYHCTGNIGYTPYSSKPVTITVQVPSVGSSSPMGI


Assays:
[1] = biological target: T1, cynomolgus monkey FcγRIIa1 …; test: SPR; KD of SG1 / KD of variant
[2] = biological target: T2, cynomolgus monkey FcγRIIa2 …; test: SPR; KD of SG1 / KD of variant
[3] = biological target: T3, cynomolgus monkey FcγRIIa3 …; test: SPR; KD of SG1 / KD of variant
[4] = biological target: T4, cynomolgus monkey FcγRIIb extracellular …; test: SPR; KD of SG1 / KD of variant
[5] = biological target: T5, cynomolgus monkey FcγRIIIaS …; test: SPR; KD of SG1 / KD of variant
[6] = biological target: T6, human FcγRIIaH extracellular domain …; test: SPR; KD of SG1 / KD of variant
[7] = biological target: T7, human FcγRIIaR extracellular domain …; test: SPR; KD of SG1 / KD of variant
[8] = biological target: T8, human FcγRIIb extracellular domain with …; test: SPR; KD of SG1 / KD of variant
[9] = biological target: T10, human FcγRIIIaV extracellular domain with C-terminal His-tag (human, UniProt P08637 17-208); test: SPR; KD of SG1 / KD of variant
T10 construct: also called human FcgRIIIaV; FcgRIIIaV
T10 sequence (P08637 17-208 F176V): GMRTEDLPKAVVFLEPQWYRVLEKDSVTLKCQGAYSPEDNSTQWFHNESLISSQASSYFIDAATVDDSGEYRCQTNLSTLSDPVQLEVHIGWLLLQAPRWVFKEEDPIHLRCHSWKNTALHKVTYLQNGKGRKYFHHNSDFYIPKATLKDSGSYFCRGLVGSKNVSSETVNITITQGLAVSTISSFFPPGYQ

[10] = biological target: T11, human FcγRIIIaV extracellular domain with C-terminal His-tag (human, UniProt P08637 17-208); test: SPR (Biacore), antibody captured, FcgR as analyte
T11 construct: also called human FcgRIIIaV
Experimental: (§1) The kinetic analysis of interactions between these antibodies and FcγR was carried out using BIACORE® T200 or BIACORE® 4000 (GE Healthcare). HBS-EP+ (GE Healthcare) was used as the running buffer, and the measurement temperature was set to 25° C. […] After the measurement, the antibody captured on the chip was washed off by allowing reaction with 10 mM glycine-HCl, pH1.5 and 25 mM NaOH so that the chip was regenerated and used repeatedly. The sensorgrams obtained as measurement results were analyzed by the 1:1 Langmuir binding model using the BIACORE® Evaluation Software to calculate the binding rate constant ka (L/mol/s) and dissociation rate constant kd (1/s), and the dissociation constant KD (mol/L) was calculated from these values. […] Regarding such interactions, KD values were calculated using the following 1:1 binding model described in BIACORE® T100 Software Handbook BR1006-48 Edition AE.
T11 sequence (P08637 17-208 F176V): as above

[11] = biological target: T9, cynomolgus monkey FcγRIIa1 …; test: SPR (Biacore), antibody captured, FcgR as analyte
Experimental: as §1

KD fold (SG1 = 1) [1] [fold]	KD fold (SG1 = 1) [2] [fold]	KD fold (SG1 = 1) [3] [fold]	KD fold (SG1 = 1) [4] [fold]	KD fold (SG1 = 1) [5] [fold]	KD fold (SG1 = 1) [6] [fold]	KD fold (SG1 = 1) [7] [fold]	KD fold (SG1 = 1) [8] [fold]	KD fold (SG1 = 1) [9] [fold]	Kd [10] [µM]	Kd [11] [µM]	Binder
2	3	2.5	3.1	0.12	6.3	2	1.2	0.05	–	–	M103205H795-MY285 (heavy chain) with M103202L889-SK1 (light chain) (antibody, human IgG1, kappa, name in EU numbering, Substitutions introduced into M103205H795-SG1; positions in EU numbering) heavy: QVTLKESGPVLVKPTETLTLTCTVSGIDLSHDDISWVRQAPGKGLEWVGIISYAGSTYYASWAKGRLTISKDTSKNQVVLTMTNMDPVDTATYYCARGVPAYSHGGDLWGQGTLVTVSSASTKGPSVFPLAPSSKSTSGGTAALGCLVKDYFPEPVTVSWNSGALTSGVHTFPAVLQSSGLYSLSSVVTVPSSSLGTQTYICNVNHKPSNTKVDKKVEPKSCDKTHTCPPCPAPELLIGPSVFLFPPKPKDTLMISRTPEVTCVVVDVSDEDPEVKFNWYVDGVEVHNAKTKPREELYNSTYRVVSVLTVLHQDWLNGKEYKCKVSNKALPKPIEKTISKAKGQPREPQVYTLPPSREEMTKNQVSLTCLVKGFYPSDIAVEWESNGQPENNYKTTPPVLDSDGSFFLYSKLTVDKSRWQQGNVFSCSVMHEALHNHYTQKSLSLSP light: DIVMTQSPATLSLSPGERATLSCTSSQSVYHANWLSWFQQKPGQPPKLLIYWASTLAYGVPSRFSGSGSGTDFTLTISSLQPEDAATYYCAGGYGGGRYAFGQGTKVEIKRTVAAPSVFIFPPSDEQLKSGTASVVCLLNNFYPREAKVQWKVDNALQSGNSQESVTEQDSKDSTYSLSSTLTLSKADYEKHKVYACEVTHQGLSSPVTKSFNRGEC
–	–	–	–	–	–	–	–	–	9.3	–	M103205H795-MY392 / M103202L889-SK1 (antibody, human IgG1, kappa, name in EU numbering) heavy: QVTLKESGPVLVKPTETLTLTCTVSGIDLSHDDISWVRQAPGKGLEWVGIISYAGSTYYASWAKGRLTISKDTSKNQVVLTMTNMDPVDTATYYCARGVPAYSHGGDLWGQGTLVTVSSASTKGPSVFPLAPSSKSTSGGTAALGCLVKDYFPEPVTVSWNSGALTSGVHTFPAVLQSSGLYSLSSVVTVPSSSLGTQTYICNVNHKPSNTKVDKKVEPKSCDKTHTCPPCPAPELLTGPSVFLFPPKPKDTLMISRTPEVTCVVVDVSDEDPEVKFNWYVDGVEVHNAKTKPREEQYNLTYRVVSVLTVLHQDWLNGKEYKCKVSNKALPKPIEKTISKAKGQPREPQVYTLPPSREEMTKNQVSLTCLVKGFYPSDIAVEWESNGQPENNYKTTPPVLDSDGSFFLYSKLTVDKSRWQQGNVFSCSVMHEALHNHYTQKSLSLSP light: DIVMTQSPATLSLSPGERATLSCTSSQSVYHANWLSWFQQKPGQPPKLLIYWASTLAYGVPSRFSGSGSGTDFTLTISSLQPEDAATYYCAGGYGGGRYAFGQGTKVEIKRTVAAPSVFIFPPSDEQLKSGTASVVCLLNNFYPREAKVQWKVDNALQSGNSQESVTEQDSKDSTYSLSSTLTLSKADYEKHKVYACEVTHQGLSSPVTKSFNRGEC
–	–	–	–	–	–	–	–	–	5.2	1.5	M103205H795-MY535 / M103202L889-SK1 (antibody, human IgG1, kappa, name in EU numbering) heavy: QVTLKESGPVLVKPTETLTLTCTVSGIDLSHDDISWVRQAPGKGLEWVGIISYAGSTYYASWAKGRLTISKDTSKNQVVLTMTNMDPVDTATYYCARGVPAYSHGGDLWGQGTLVTVSSASTKGPSVFPLAPSSKSTSGGTAALGCLVKDYFPEPVTVSWNSGALTSGVHTFPAVLQSSGLYSLSSVVTVPSSSLGTQTYICNVNHKPSNTKVDKKVEPKSCDKTHTCPPCPGPEWLTGPSVFLFPPKPKDTLMISRTPEVTCVVVDVSDEDPEVKFNWYVDGVEVHNAKTKPREEQYNSTYRVVSVLTVLHQDWLNGKEYKCKVSNKALPKPIEKTISKAKGQPREPQVYTLPPSREEMTKNQVSLTCLVKGFYPSDIAVEWESNGQPENNYKTTPPVLDSDGSFFLYSKLTVDKSRWQQGNVFSCSVMHEALHNHYTQKSLSLSP light: DIVMTQSPATLSLSPGERATLSCTSSQSVYHANWLSWFQQKPGQPPKLLIYWASTLAYGVPSRFSGSGSGTDFTLTISSLQPEDAATYYCAGGYGGGRYAFGQGTKVEIKRTVAAPSVFIFPPSDEQLKSGTASVVCLLNNFYPREAKVQWKVDNALQSGNSQESVTEQDSKDSTYSLSSTLTLSKADYEKHKVYACEVTHQGLSSPVTKSFNRGEC
